One substance from doi:10.1101/2022.09.26.509586 can be followed below.

The test addresses piggyBac transposase residues 1-558 (PB1-558) (cabbage looper moth). As to the kind of experiment: AUC.

The term stoichiometry N denotes the number of molecules, sites or subunits per partner or assembly. For the substance “piggyBac transposase residues 1-558 (PB1-558) (domain or fragment)”, the stoichiometry N was determined as 2.
